In patent US20230265183A1 (MABWELL SHANGHAI BIOSCIENCE, published 2023):
Values joined by “and” are separate entries in the source; they are usually repeats but may differ in a detail not shown here. Equal entries are not always repeated. Where two headings read alike, the source gives them in different places.

T1: human Nectin-4 (human, UniProt Q96NY8 32-510)
T1 construct: whole, on cells; Cell-surface target of the FACS, endocytosis and proliferation assays (CHO-huNectin4 S8 cells, BT474 cells); the assay field says which cells; also called huNectin4; PVRL4
T1 sequence (looked up): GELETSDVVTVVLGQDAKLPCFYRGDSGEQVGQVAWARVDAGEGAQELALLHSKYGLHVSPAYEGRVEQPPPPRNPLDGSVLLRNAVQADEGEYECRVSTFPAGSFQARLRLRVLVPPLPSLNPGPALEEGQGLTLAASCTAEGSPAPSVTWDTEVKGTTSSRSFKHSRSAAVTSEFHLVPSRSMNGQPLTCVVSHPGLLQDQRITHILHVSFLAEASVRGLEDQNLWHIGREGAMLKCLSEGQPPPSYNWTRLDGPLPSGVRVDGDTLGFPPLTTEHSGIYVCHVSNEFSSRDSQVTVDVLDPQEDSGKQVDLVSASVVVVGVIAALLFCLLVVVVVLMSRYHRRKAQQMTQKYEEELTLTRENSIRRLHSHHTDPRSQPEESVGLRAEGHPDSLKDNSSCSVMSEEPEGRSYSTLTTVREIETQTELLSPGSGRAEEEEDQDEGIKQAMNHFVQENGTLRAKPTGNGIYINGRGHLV

B1: 42D20 hz10-E (antibody, V domains shown)
VH: QVQLQESGPGLVKPSETLSLTCTVSGFSLIDYGVSWIRQPPGKGLEWIGVIWGDGKIYYNSVLKSRVTISKDNSKSQVSLKLSSVTAADTAVYYCAKQGGLLFYAMDYWGQGTLVTVSS
VL: DIVMTQSPDSLAVSLGERATINCKSSQSLLNSYSQKNYLAWYQQKPGQPPKLLIYFASTRESGVPDRFSGSGSGTDFTLTISSLQAEDVAVYYCQQHYNTPFTFGAGTKLELKR
modifications: vcMMAE conjugated to the TECP-reduced antibody; residues not stated; DAR 4.0±1
B2: 42D20 hz43-E (antibody, V domains shown)
VH: QVQLQESGPGLVKPSETLSLTCTVSGFSLIDYGVSWIRQPPGKGLEWIGVIWGDAKIYYNSVLKSRVTISKDNSKSQVSLKLSSVTAADTAVYYCAKQGGLLFYAMDYWGQGTLVTVSS
VL: DIVMTQSPDSLAVSLGERATINCKSSQSLLNTYSQKNYLAWYQQKPGQSPKLLIYFASTRESGVPDRFSGSGSETDFTLTISSLQAEDLAVYFCQQHYNTPFTFGAGTKLELKR
modifications: vcMMAE conjugated to the TECP-reduced antibody; residues not stated; DAR 4.0±1
B3: 42D20 hz44-E (antibody, V domains shown)
VH: QVQLQESGPGLVKPSETLSLTCTVSGFSLIDYGVSWIRQPPGKGLEWIGVIWGDAKIYYNSVLKSRVTISKDNSKSQVSLKLSSVTAADTAVYYCAKQGGLLFYAMDYWGQGTLVTVSS
VL: DIVMTQSPDSLAVSLGERATINCKSSQSLLNKYSQKNYLAWYQQKPGQPPKLLIYFASTRESGVPDRFSGSGSGTDFTLTISSLQAEDVAVYYCQQHYNTPFTFGAGTKLELKR
modifications: vcMMAE conjugated to the TECP-reduced antibody; residues not stated; DAR 4.0±1
B4: 42D20 hz63-E (antibody, V domains shown)
VH: QVQLQESGPGLVKPSETLSLTCTVSGFSLIDYGVSWIRQPPGKGLEWIGVIWGGGKIYYNSVLKSRVTISKDNSKSQVSLKLSSVTAADTAVYYCAKQGGLLFYAMDYWGQGTLVTVSS
VL: DIVMTQSPDSLAVSLGERATINCKSSQSLLNTYSQKNYLAWYQQKPGQSPKLLIYFASTRESGVPDRFSGSGSETDFTLTISSLQAEDLAVYFCQQHYNTPFTFGAGTKLELKR
modifications: vcMMAE conjugated to the TECP-reduced antibody; residues not stated; DAR 4.0±1
B5: 42D20 hz64-E (antibody, V domains shown)
VH: QVQLQESGPGLVKPSETLSLTCTVSGFSLIDYGVSWIRQPPGKGLEWIGVIWGGGKIYYNSVLKSRVTISKDNSKSQVSLKLSSVTAADTAVYYCAKQGGLLFYAMDYWGQGTLVTVSS
VL: DIVMTQSPDSLAVSLGERATINCKSSQSLLNKYSQKNYLAWYQQKPGQPPKLLIYFASTRESGVPDRFSGSGSGTDFTLTISSLQAEDVAVYYCQQHYNTPFTFGAGTKLELKR
modifications: vcMMAE conjugated to the TECP-reduced antibody; residues not stated; DAR 4.0±1
B6: Enfortumab-E (antibody, human IgG1, kappa, V domains shown)
VH: EVQLVESGGGLVQPGGSLRLSCAASGFTFSSYNMNWVRQAPGKGLEWVSYISSSSSTIYYADSVKGRFTISRDNAKNSLSLQMNSLRDEDTAVYYCARAYYYGMDVWGQGTTVTVSS
VL: DIQMTQSPSSVSASVGDRVTITCRASQGISGWLAWYQQKPGKAPKFLIYAASTLQSGVPSRFSGSGSGTDFTLTISSLQPEDFATYYCQQANSFPPTFGGGTKVEIKR
modifications: vcMMAE conjugated to the TECP-reduced antibody; residues not stated; DAR 4.0±1
B7: 20M12 xiIgG-E (antibody, V domains shown)
VH: QVQLQQSGPELVKPGASVRISCKASGYTFTSYYIHWVKQRPGQGLEWIGWIYPGNANNKYNENFKGKATLTADKSSSTAYMQLSSLTSEDSAVYFCARSVYYFDYWGQGTTLTVSS
VL: SVVMTQTPKFLLVSAGDRVTITCKASQSVSNDVAWYQQKPGQSPKLLIYYASNRNTGVPDRFTGSGYGTDFTFNISTVQAEDLAVYFCQQDYSSPYTFGGGTKLEIKR
modifications: vcMMAE conjugated to the TECP-reduced antibody; residues not stated; DAR 4.0±1
B8: 20M12 hz01-E (antibody, human IgG1, kappa, V domains shown)
VH: QVQLVQSGAEVKKPGASVKVSCKASGYTFTSYYIHWVRQAPGQRLEWMGWIYPGNANNKYNENFKGRVTITRDTSASTAYMELSSLRSEDTAVYYCARSVYYFDYWGQGTLVTVSS
VL: EVVMTQSPATLSVSPGERATLSCKASQSVSNDVAWYQQKPGQAPRLLIYYASNRNTGIPARFSGSGSGTEFTLTISSLQSEDLAVYFCQQDYSSPYTFGGGTKVEIKR
modifications: vcMMAE conjugated to the TECP-reduced antibody; residues not stated; DAR 4.0±1
B9: 20M12 hz11-E (antibody, human IgG1, kappa, V domains shown)
VH: QVQLVQSGAEVKKPGASVKVSCKASGYTFTSYYIHWVRQAPGQRLEWMGWIYPGNANNKYNENFKGRVTITADKSASTAYMELSSLRSEDTAVYYCARSVYYFDYWGQGTLVTVSS
VL: EVVMTQSPATLSVSPGERATLSCKASQSVSNDVAWYQQKPGQAPRLLIYYASNRNTGIPARFSGSGSGTEFTLTISSLQSEDLAVYFCQQDYSSPYTFGGGTKVEIKR
modifications: vcMMAE conjugated to the TECP-reduced antibody; residues not stated; DAR 4.0±1
B10: mIgG 5M21-E (antibody, V domains shown)
VH: QVQLQQSGPELVKPGASVRITCKASGYTFTTYYIHWVKQRPGQGLEWIGWIYPGNVNTKYNEKFKGKATLTADKSSSTAYMQLSSLTSEDSAVYFCARGLYYFDYWGQGTTLTVSS
VL: SIVMTQTPKFLLVSAGDRLTITCKASQSVSNDVAWYQQKPGQSPKLLIYYASNRYTGVPDRFTGSGYGTDFTFTISTVQAEDLAVYFCQQDYSSPYTFGGGTKLEIK
B11: 5M21 hz10-E (antibody, human IgG1, kappa, V domains shown)
VH: QVQLVQSGAEVKKPGASVKVSCKASGYTFTTYYIHWVRQAPGQRLEWMGWIYPGNVNTKYNEKFKGRVTITADKSASTAYMELSSLRSEDTAVYYCARGLYYFDYWGQGTLVTVSS
VL: DIQMTQSPSSLSASVGDRVTITCKASQSVSNDVAWYQQKPGKVPKLLIYYASNRYTGVPSRFSGSGSGTDFTLTISSLQPEDVATYYCQQDYSSPYTFGGGTKVEIKR
modifications: vcMMAE conjugated to the TECP-reduced antibody; residues not stated; DAR 4.0±1
B12: 5M21 hz11-E (antibody, human IgG1, kappa, V domains shown)
VH: QVQLVQSGAEVKKPGASVKVSCKASGYTFTTYYIHWVRQAPGQRLEWMGWIYPGNVNTKYNEKFKGRVTITADKSASTAYMELSSLRSEDTAVYYCARGLYYFDYWGQGTLVTVSS
VL: DIQMTQSPSSLSASVGDRVTITCKASQSVSNDVAWYQQKPGKVPKLLIYYASNRYTGVPSRFSGSGSGTDFTLTISSLQPEDLATYFCQQDYSSPYTFGGGTKVEIKR
modifications: vcMMAE conjugated to the TECP-reduced antibody; residues not stated; DAR 4.0±1
B13: mIgG 42D20-E (antibody, V domains shown)
VH: QVQLKESGPGLVAPSQSLSISCTVSGFSLIDYGVSWIRQPPGKGLEWLGVIWGDGKIYYNSVLKSRLSISKDNSKSQVFLKMNSLQTDDTAMYYCAKQGGLLFYAMDYWGQGTSVTVSS
VL: DIVMTQSPSSLAMSVGQRVTMNCKSSQSLLNSYSQKNYLAWYQQKPGQSPKLLIYFASTRESGVPDRFIGSGSETDFTLTISSVQAEDLADYFCQQHYNTPFTFGSGTKLEIK

Key:
human Nectin-4 [1] = target: T1, human Nectin-4; test: FACS on BT474 cells
Method: The solutions of different concentrations were added to 384-well plates, 10 µl per well.
BT474 cells (breast cancer cells) expressing Nectin-4 on the cell surface were collected by centrifugation at 100 g at room temperature for 5 minutes, and then the cells were washed with PBS containing 0.5% BSA once and were centrifuged at 100 g at room temperature for 5 minutes. […] After incubation at 4° C. for 1 hour, fluorescently labeled goat anti-human IgG secondary antibody was added. After continued incubation at 4° C. for 1 hour, mean fluorescence readings of the cell populations were analyzed by a flow cytometer.

human Nectin-4 [2] = target: T1, human Nectin-4; test: cell-based or functional assay
human Nectin-4 [3] = target: T1, human Nectin-4; test: cell-based or functional assay; remark: listed apart in the source
human Nectin-4 [4] = target: T1, human Nectin-4; test: cell-based or functional assay; remark: listed apart in the source

Binder | EC50 (human Nectin-4 [1]) [ng/mL] | Endocytosis efficiency (%) (human Nectin-4 [2]) | EC50 (ng/ml), inhibition of proliferation of BT474 cells (human Nectin-4 [3]) | Percentage of cell killing at the highest concentration (human Nectin-4 [3]) [%] | EC50 (ng/ml), inhibition of proliferation of BT474 cells (human Nectin-4 [4]) | Percentage of cell killing at the highest concentration (human Nectin-4 [4]) [%]
B1 | 307 | 74 | 2.61 ng/mL | 33.7 | 9.41 ng/mL | 40.8
B2 | 430 | 68.9 |  |  | 6.31 ng/mL | 42.5
B3 | 504 | 71.1 |  |  | 3.61 ng/mL | 42.7
B4 | 299 | 67.9 |  |  | 2.42 ng/mL | 47
B5 | 373 | 66.6 |  |  | 4.58 ng/mL | 40.9
B6 | 230 | 58.9 | 5.37 ng/mL and 3.95 ng/mL and 5.11 ng/mL and 5.3 ng/mL |  | 2.26 ng/mL and 3.86 ng/mL and 2.91 ng/mL and 3.17 ng/mL | 
B7 | 227 | 67 |  |  | 14.8 ng/mL | 41.4
B8 | 420 | 56.6 |  |  | 24.2 ng/mL | 32.2
B9 | 232 | 58.4 |  |  | 31.6 ng/mL | 38.3
B10 |  |  | 3.21 ng/mL | 36 |  | 
B11 |  |  | 21.1 ng/mL | 29.4 |  | 
B12 |  |  |  | 38.5 |  | 
B13 |  |  | 4.64 ng/mL | 33.5 |  | 
